{"source": "FireProtDB (doi:10.1016/0301-4622(94)00150-i)", "proteins": {"B1": {"name": "Uricase wild type, Q00511 (protein)", "chain": "MSAVKAARYGKDNVRVYKVHKDEKTGVQTVYEMTVCVLLEGEIETSYTKADNSVIVATDSIKNTIYITAKQNPVTPPELFGSILGTHFIEKYNHIHAAHVNIVCHRWTRMDIDGKPHPHSFIRDSEEKRNVQVDVVEGKGIDIKSSLSGLTVLKSTNSQFWGFLRDEYTTLKETWDRILSTDVDATWQWKNFSGLQEVRSHVPKFDATWATAREVTLKTFAEDNSASVQATMYKMAEQILARQQLIETVEYSLPNKHYFEIDLSWHKGLQNTGKNAEVFAPQSDPNGLIKCTVGRSSLKSKL"}}, "conditions": "Aspergillus flavus, Thermal, DSC, reversible: No, whole UniProt chain shown", "key": {"[1]": {"conditions": "pH 6.95, Sodium phosphate 50 mM"}, "[2]": {"conditions": "pH 7.45, Sodium phosphate 50 mM"}}, "note": "Values joined by “and” are separate entries in the source; they are usually repeats but may differ in a detail not shown here. Equal values may be shown once."}
{"protein": "B1", "values": [{"measurement": "Tm", "setting": "[1]", "value": 65, "unit": "°C"}, {"measurement": "unfolding enthalpy (calorimetric)", "setting": "[1]", "value": 16.3, "unit": "kcal/mol"}, {"measurement": "unfolding enthalpy (calorimetric)", "setting": "pH 7.2, Sodium phosphate 50 mM", "value": "75.8 kcal/mol and 48.1 kcal/mol"}, {"measurement": "unfolding enthalpy (calorimetric)", "setting": "pH 7.25, Sodium phosphate 50 mM", "value": "72 kcal/mol and 53.3 kcal/mol"}, {"measurement": "Tm", "setting": "[2]", "value": 68.4, "unit": "°C"}, {"measurement": "unfolding enthalpy (calorimetric)", "setting": "[2]", "value": 57.9, "unit": "kcal/mol"}, {"measurement": "Tm", "setting": "pH 7.8, Sodium phosphate 50 mM", "value": 50.1, "unit": "°C"}, {"measurement": "unfolding enthalpy (calorimetric)", "setting": "pH 7.8, Sodium phosphate 50 mM", "value": 82.8, "unit": "kcal/mol"}, {"measurement": "unfolding enthalpy (calorimetric)", "setting": "pH 8.5, Tris-HCl 50 mM", "value": "78.9 kcal/mol and 29.7 kcal/mol"}, {"measurement": "Tm", "setting": "pH 8.8, Tris-HCl 50 mM", "value": 49.9, "unit": "°C"}, {"measurement": "unfolding enthalpy (calorimetric)", "setting": "pH 8.8, Tris-HCl 50 mM", "value": 80.1, "unit": "kcal/mol"}, {"measurement": "unfolding enthalpy (calorimetric)", "setting": "pH 9.05, Tris-HCl 50 mM", "value": "76.8 kcal/mol and 26.8 kcal/mol"}, {"measurement": "unfolding enthalpy (calorimetric)", "setting": "pH 9.5, carbonate 50 mM", "value": "82.3 kcal/mol and 59.1 kcal/mol"}]}
